Reference: patent publication US20250346878, “EDITING OF DOUBLE-STRANDED DNA WITH RELAXED PAM REQUIREMENT” (WUHAN UNIVERSITY, published 2025)
Substitutions are numbered along the chain they refer to.

How the values were obtained:
dAtCas9 [1] = molecular target: T1, dAtCas9 (Alicyclobacillus tengchongensis, D8A,H617A,N640A); assay: EMSA; PAM CTAA; details: tags: 6xHis; label: Cy5; NcoI-linearized plasmid
T1 chain: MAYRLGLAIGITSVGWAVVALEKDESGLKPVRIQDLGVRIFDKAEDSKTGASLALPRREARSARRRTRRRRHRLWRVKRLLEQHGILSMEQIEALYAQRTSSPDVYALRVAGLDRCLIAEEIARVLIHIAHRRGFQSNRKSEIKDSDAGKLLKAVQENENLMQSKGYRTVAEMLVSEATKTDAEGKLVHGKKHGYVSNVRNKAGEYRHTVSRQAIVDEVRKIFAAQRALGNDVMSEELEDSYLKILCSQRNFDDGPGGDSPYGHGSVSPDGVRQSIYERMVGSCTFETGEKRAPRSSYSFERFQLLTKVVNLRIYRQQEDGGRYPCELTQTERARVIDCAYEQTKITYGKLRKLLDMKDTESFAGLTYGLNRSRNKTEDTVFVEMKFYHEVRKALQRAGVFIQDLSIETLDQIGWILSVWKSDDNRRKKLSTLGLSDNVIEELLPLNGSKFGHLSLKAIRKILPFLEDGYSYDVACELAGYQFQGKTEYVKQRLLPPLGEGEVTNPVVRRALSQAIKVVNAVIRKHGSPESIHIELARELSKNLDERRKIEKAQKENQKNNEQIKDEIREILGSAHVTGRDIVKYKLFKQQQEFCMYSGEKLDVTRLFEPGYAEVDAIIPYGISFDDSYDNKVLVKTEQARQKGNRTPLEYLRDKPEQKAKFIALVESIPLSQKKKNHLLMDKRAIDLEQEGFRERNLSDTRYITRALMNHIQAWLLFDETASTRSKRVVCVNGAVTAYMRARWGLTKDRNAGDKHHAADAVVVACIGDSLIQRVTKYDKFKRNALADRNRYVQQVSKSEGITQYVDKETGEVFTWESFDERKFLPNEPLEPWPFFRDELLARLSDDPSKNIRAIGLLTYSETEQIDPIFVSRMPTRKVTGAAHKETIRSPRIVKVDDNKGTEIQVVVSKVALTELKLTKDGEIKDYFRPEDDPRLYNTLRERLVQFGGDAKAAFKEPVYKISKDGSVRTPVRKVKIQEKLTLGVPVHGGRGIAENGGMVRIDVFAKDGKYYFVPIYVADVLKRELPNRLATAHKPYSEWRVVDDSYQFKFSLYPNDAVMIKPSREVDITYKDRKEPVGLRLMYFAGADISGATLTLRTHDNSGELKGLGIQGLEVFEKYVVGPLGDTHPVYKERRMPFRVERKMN
Protocol: (§1) A. Schematic diagram of AtCas9 domain structure showing RuvC and HNH nuclease domain mutation site. BH, arginine-rich bridge helix; REC, recognition lobe; L1, linker 1; L2, linker 2; WED, Wedge domain; TOPO, Topoisomerase-homology domain; CTD, C-terminal domain; HNH, HNH domain; D, Aspartic acid; H, Histidine; N, Asparagine; A, Alanine. B. (left) Electrophoretic mobility shift assay (EMSA) were carried out by incubating AtCas9 RNP with 25 nM Cy5-labeled oligonucleotides (50 bp) in buffer16 without Mg²⁺. […] (right) Catalytically dead AtCas9 (dAtCas9, D8A H617A N640A) were used for EMSA assay in the presence of Mg²⁺ C. […] The bulge substrate details are illustrated in FIG. 10B. […] MUT PAM TATA and WT PAM CTAA was used. D. Higher binding affinity of AtCas9 RNPs towards negative supercoiled dsDNA than linear dsDNA. 1 nM cy5-labeled negative supercoil plasmid or NcoI-linearized plasmid containing PAM (CTAA) or mutant PAM (TGAC) motif were incubated with dAtCas9 RNP complex at indicated dosage. ProK, Proteinase K.
(§2) dAtCas9 and sgRNA were mixed at 1:2 molar ratio in 1×buffer16. After incubation at room temperature for 10 minutes, the RNP mixture were diluted to various concentration ranging from […] to 0.6 nM and 4 nM cy5-labeled oligonucleotides was added. Binding reactions were carried out at 55° C. for 30 minutes. Samples were resolved on 4% native TBE-PAGE for oligonucleotides. […]

dAtCas9 [2] = molecular target: T1, dAtCas9; assay: EMSA; SD 10.9; buffer16 with 10 mM Mg2+, 55C; PAM CTAA; details: tags: 6xHis; label: 5' Cy5
Protocol: as §1, §2

dAtCas9-D1089A [3] = molecular target: T2, dAtCas9-D1089A (Alicyclobacillus tengchongensis, D8A,H617A,N640A,D1089A); assay: EMSA; SD 15.39; PAM CTAA; details: tags: 6xHis; label: 5' Cy5
T2 chain: T1 chain with D1089A
Text: (§3) A. Schematic representation of AtCas9 domain structure showing the positions of PAM-interacting (PI) mutations. BH, arginine-rich bridge helix; REC, recognition lobe; L1, L1 linker; L2, L2 linker; WED, Wedge domain; TOPO, Topoisomerase-homology domain; CTD, C-terminal domain; HNH, HNH domain; RuvC, RuvC domain; D, Aspartic acid; I, Isoleucine; S, Serine; G, Glycine; A, Alanine. B. Negative supercoil and linearized DNA of different PAM were cleaved by WT AtCas9 and two PI mutants, m4 and m5. Each PAM variant has at least two distinct spacer sequences for cleavage assays. Use Image Lab software to analyzed the percentage of cutting products and take the average value of each PAM variant for graphing. m4, D1089A; m5, D1089A S1091A G1092A. C. Sequence logo for the AtCas9 PI domain mutant m4 (D1089A) PAM as determined by linearized PAM library substrates cleavage assay. D. EMSA assay were performed with 5′ cy5-labeled oligonucleotides carrying WT PAM (CTAA, left) or MUT PAM (TATA, right), and dAtCas9 or dAtCas9-D1089A RNP complex titrating from 1.2 nM to 2.4 μM. […] E. SpCas9 RNPs hardly bind to mut PAM (GTC) dsDNA compared with wt PAM (AGG) dsDNA. KD±SD for SpCas9 to WT PAM dsDNA, 300±10.57 nM; KD±SD for SpCas9 to MUT PAM dsDNA, ˜2.495e+18 nM.
(§4) dAtCas9 and sgRNA were mixed at 1:2 molar ratio in 1×buffer16. […]

dAtCas9 [4] = molecular target: T1, dAtCas9; assay: EMSA; SD 12.05; second measurement, PAM CTAA; guide 21a sgRNA-At; details: tags: 6xHis; label: 5' Cy5
Text: as §3, §4

dAtCas9 [5] = molecular target: T1, dAtCas9; assay: EMSA; SD 7.1; second measurement, mutated PAM TATA; details: tags: 6xHis; label: 5' Cy5
Text: as §3, §4

dAtCas9-D1089A [6] = molecular target: T2, dAtCas9-D1089A; assay: EMSA; SD 13.6; PAM TATA; details: tags: 6xHis; label: 5' Cy5
Text: as §3, §4

dAtCas9 [7] = molecular target: T1, dAtCas9; assay: EMSA; SD 4.5; mutated PAM TATA; buffer16, 55C; details: tags: 6xHis; label: 5' Cy5
Protocol: as §1, §2

dAtCas9 [8] = molecular target: T1, dAtCas9; assay: EMSA; SD 12.2; mutated PAM TATA with 1-2 bulge; details: tags: 6xHis; label: 5' Cy5; 2-base bulge at PAM-proximal positions 1-2
Protocol: as §1, §2

B1: 27m sgRNA-At ; 27m WT PAM (CTAA) mini plasmid, linear (ssRNA ; dsDNA)
RNA: GAAGAUCCUUUGAUCUUUUCUACGGGUCAUAGUUCCCUCACAAGCCUCGAUGUGGUAUGAUGAAAAUCAUACCACAUCAAGGCUUGCGAGGUUGCUAUGAUAAGGCAACAGGCCGCAAAGCACUGACCCGCAUUCCAAUGAAUGCGGGUCAUCUACUUUUU
DNA 1: GAAGATCCTTTGATCTTTTCTACGGGGTCCTAA
DNA 2: TTAGGACCCCGTAGAAAAGATCAAAGGATCTTC
B1: binds (dAtCas9 [1]).

B2: 21a sgRNA-At full length ; 50 bp 21a WT PAM (CTAA) (ssRNA ; dsDNA)
RNA: AAAUGCCUUCGAUUUUACCCCAACGAAUAAGUCAUAGUUCCCUCACAAGCCUCGAUGUGGUAUGAUGAAAAUCAUACCACAUCAAGGCUUGCGAGGUUGCUAUGAUAAGGCAACAGGCCGCAAAGCACUGACCCGCAUUCCAAUGAAUGCGGGUCAUCUACUUUUU
DNA 1: AAATGCCTTCGATTTTACCCCAACGAATAACAGGCTAAAATATGGACCTG
DNA 2: CAGGTCCATATTTTAGCCTGTTATTCGTTGGGGTAAAATCGAAGGCATTT
Binder B2 has a Kd (dAtCas9 [2]) of 0.0224 µM, a Kd (dAtCas9-D1089A [3]) of 0.0444 µM and a Kd (dAtCas9 [4]) of 0.0262 µM.

B3: 21a sgRNA-At full length ; 50 bp 21a mutated PAM (TATA), 0 bulge (ssRNA ; dsDNA)
RNA: B2 RNA
DNA 1: AAATGCCTTCGATTTTACCCCAACGAATAAGTCATATAAATATGGACCTG
DNA 2: CAGGTCCATATTTATATGACTTATTCGTTGGGGTAAAATCGAAGGCATTT
With B3 the Kd (dAtCas9 [5]) was 0.109 µM, the Kd (dAtCas9-D1089A [6]) was 0.0272 µM and the Kd (dAtCas9 [7]) was 0.248 µM.

B4: 21a sgRNA-At full length ; 50 bp 21a mutated PAM, 1-2 bulge (ssRNA ; dsDNA)
RNA: B2 RNA
DNA 1: B3 DNA 1 with A29T, A30T
DNA 2: B3 DNA 2
In the case of B4, the Kd (dAtCas9 [8]) is reported as 0.0295 µM.
